How the values were obtained:
[1] = system: cell-free protein synthesis; assay: Titration of analyte against an unregulated reporter plasmid (pT7-sfGFP) in a cell-free reaction; type: biochemical, E. coli; settings: 100 μM CuSO4
Experimental: A series of tuning experiments are next used to optimize the sensor. First, the optimal concentration of the aTF (CueR) is found for the non-cascaded sensor (e.g., pCue-sfGFP) through a series of ratiometric titrations between the aTF-enriched extract and the blank extract in both the presence and absence of analyte (see e.g., the data in FIG. 7). This experiment is an isothermal cell-free gene expression reaction held at 30° C. in a plate reader for […] using an established set of physiochemical conditions to maximize protein production in general. It may also be necessary to determine the concentration of analyte that saturates the cell-free sensor without inhibiting transcription and translation in vitro, which can be done with a simple titration of analyte against an unregulated reporter plasmid (e.g., pT7-sfGFP).

PbCl2 = assay: Hand-validation of top PbrR variants from the SSM library screen; type: biochemical, E. coli; settings: top 10 variants with the highest fold change from each lead concentration
Source text: The top 10 variants with the highest fold change from each lead concentration were hand-validated to validate the results from the SSM library screen.

lead = assay: Enriched extract PbrR lead sensors; type: biochemical, E. coli; settings: FIG. 40 and 41
Experimental: Enriched extract is made by pre-expressing the transcription factor in the E. coli strain before lysing to generate the extract. […] It was also determined that a catechol reporter can be used for improved sensor output. This works by having the PbrR transcription factor bind to PbrO and drive expression of an enzyme that catalyzes a colorimetric change in catechol.

O=S(=O)([O-])[O-].[Cu+2] [CuSO4]
effect on cell-free protein synthesis [1]: shuts down cell-free protein synthesis

mf-Lon
decay of sfGFP signal (protein degradation) on mixing extracts (pdt-tagged sfGFP): Increasing the concentration of mf-Lon and supplying additional ATP (a co-substrate for the reaction) results in some signal decay

B1: M60F (protein)
chain: MNIQIGELAKRTACPVVTIRFYEQEGLLPPPGRSRGNFRLYGEEHVERLQFIRHCRSLDFPLSDVRTLLSYRKRPDQDCGEVNMLLDEHIRQVESRIGALLELKHHLVELREACSGARPAQSCGILQGLSDCVCDTRGTTAHPSD
modifications: Cupriavidus metallidurans
behaviour in the hand-validated SSM results (PbCl2): bind the promoter regardless of whether or not the ligand (lead) is present

B2: M60L (protein)
chain: MNIQIGELAKRTACPVVTIRFYEQEGLLPPPGRSRGNFRLYGEEHVERLQFIRHCRSLDLPLSDVRTLLSYRKRPDQDCGEVNMLLDEHIRQVESRIGALLELKHHLVELREACSGARPAQSCGILQGLSDCVCDTRGTTAHPSD
modifications: Cupriavidus metallidurans
behaviour in the hand-validated SSM results (PbCl2): promising

B3: G128I, D64K, M60L, and P61N: quadruple variant of PbrR (SEQ ID NO: 47) (protein)
chain: MNIQIGELAKRTACPVVTIRFYEQEGLLPPPGRSRGNFRLYGEEHVERLQFIRHCRSLDLNLSKVRTLLSYRKRPDQDCGEVNMLLDEHIRQVESRIGALLELKHHLVELREACSGARPAQSCGILQILSDCVCDTRGTTAHPSD
modifications: Cupriavidus metallidurans
lead detection in enriched extract (lead): can detect lead at the limit of detection
